Results reported in patent US20030139571A1.
“And” between values parts separate entries of the source, which are not always exact repeats. Equal entries are not always repeated.

Assays:
[1] = target: gp120JR-FL/CD4-IgG2 complex (HIV-1 JR-FL)
[2] = target: gp120DH123/CD4-IgG2 complex (HIV-1 DH123); test: SPR, complex 50 nM over immobilised sulfopeptide 2-18 with MAb (150 mM [sic])
[3] = target: biotinylated CCR5 Nt sulfopeptide 2-18
[4] = target: CCR5 on L1.2-CCR5+ cells (Homo sapiens (Human)) (UniProt P51681)
gp120JR-FL (HIV-1 JR-FL) = gp120JR-FL (HIV-1 JR-FL) (UniProt P20871); test: cell-based or functional assay
[5] = target: biotinylated CCR5 Nt sulfopeptide 2-18; test: peptide ELISA, gp120/CD4-IgG2 complexes
[6] = target: biotinylated CCR5 Nt sulfopeptide 2-18; test: direct ELISA, biotinylated peptide on streptavidin plate, complex titrated (CD4-IgG2 concentration), anti-human IgG-HRP
[7] = target: CCR5 on L1.2-CCR5+ cells (Homo sapiens (Human)) (UniProt P51681); remark: listed apart in the source
[8] = target: biotinylated CCR5 Nt sulfopeptide 10-15; test: ELISA, biotinylated peptide on streptavidin plate, anti-human IgG-HRP
[9] = target: biotinylated CCR5 Nt sulfopeptide 10-18; test: as above
[10] = target: biotinylated CCR5 Nt sulfopeptide 6-16; test: as above
[11] = target: biotinylated CCR5 Nt sulfopeptide 8-15; test: as above

anti-gp120 MAb 48d (antibody)
% inhibition of complex binding to sulfopeptide 2-18 [1]: > 90% | % inhibition of complex binding to sulfopeptide 2-18 [2]: > 90%

gp120JR-FL D324A/CD4-IgG2 complex
fold decrease in binding vs wild-type gp120JR-FL [3]: > 10 fold

gp120JR-FL W427A (from UniProt P20871 32-503)
fold lower avidity than wild type (CD4-IgG2): 5 fold and 10 fold

gp120JR-FL I325A/CD4-IgG2 complex
fold decrease in binding vs wild-type gp120JR-FL [3]: > 10 fold

gp120JR-FL R313A/CD4-IgG2 complex
fold decrease in binding vs wild-type gp120JR-FL [4]: 5 fold and 10 fold

anti-V3 loop MAb 19b (antibody)
% inhibition of complex binding to sulfopeptide 2-18 [1]: > 90% | % inhibition of complex binding to sulfopeptide 2-18 [2]: 80%

gp120JR-FL R469A (from UniProt P20871 32-503)
fold lower avidity than wild type (CD4-IgG2): 5 fold and 10 fold

gp120JR-FL R444A/CD4-IgG2 complex
fold decrease in binding vs wild-type gp120JR-FL [3]: 5 fold and 10 fold

gp120JR-FL R326A/CD4-IgG2 complex
fold decrease in binding vs wild-type gp120JR-FL [3]: > 10 fold

gp120JR-FL P311A/CD4-IgG2 complex
fold decrease in binding vs wild-type gp120JR-FL [4]: 5 fold and 10 fold

CCR5 Nt peptide S-10/14
inhibition of entry of Nlluc+env- particles pseudotyped with HIV-1JR-FL envelope (luciferase; HeLa-CD4+CCR5+ and U87MG-CD4+CCR5+ cells; peptide 100 µM) (gp120JR-FL (HIV-1 JR-FL)): 50%

gp120JR-FL N301A/CD4-IgG2 complex
fold decrease in binding vs wild-type gp120JR-FL [3]: > 10 fold

gp120JR-FL S306A/CD4-IgG2 complex
fold decrease in binding vs wild-type gp120JR-FL [4]: 5 fold and 10 fold

gp120JR-FL G310A/CD4-IgG2 complex
fold decrease in binding vs wild-type gp120JR-FL [4]: 10 fold and 5 fold

gp120JR-FL T303A/CD4-IgG2 complex
fold decrease in binding vs wild-type gp120JR-FL [3]: > 10 fold

gp120JR-FL R440A (from UniProt P20871 32-503)
fold lower avidity than wild type (CD4-IgG2): 5 fold and 10 fold

gp120JR-FL R419A/CD4-IgG2 complex
fold decrease in binding vs wild-type gp120JR-FL [3]: 5 fold and 10 fold

gp120JR-FL R298A/CD4-IgG2 complex
fold decrease in binding vs wild-type gp120JR-FL [3]: > 10 fold

gp120JR-FL I322A/CD4-IgG2 complex
fold decrease in binding vs wild-type gp120JR-FL [3]: > 10 fold

gp120JR-FL Y316A/CD4-IgG2 complex
fold decrease in binding vs wild-type gp120JR-FL [4]: 5 fold and 10 fold

anti-gp120 MAb 17b (antibody)
% inhibition of complex binding to sulfopeptide 2-18 [1]: > 90% | % inhibition of complex binding to sulfopeptide 2-18 [2]: > 90%

gp120DH123/CD4-IgG2 complex
fold less binding than gp120JR-FL [5]: 5 fold | IC50 [6]: 5 nM

gp120JR-FL I420A/CD4-IgG2 complex
fold decrease in binding vs wild-type gp120JR-FL [3]: 5 fold and 10 fold

gp120JR-FL K421A/CD4-IgG2 complex
fold decrease in binding vs wild-type gp120JR-FL [3]: 5 fold and 10 fold

CCR5 Nt peptide S-3/10/14
inhibition of entry of Nlluc+env- particles pseudotyped with HIV-1JR-FL envelope (luciferase; HeLa-CD4+CCR5+ and U87MG-CD4+CCR5+ cells; peptide 100 µM) (gp120JR-FL (HIV-1 JR-FL)): 50%

gp120JR-FL/CD4-IgG2 complex
m.f.i. [7]: 40 m.f.i. | fold less avid than for sulfopeptide 2-18 [8]: > 10 fold | fold lower avidity than for sulfopeptide 2-18 [9]: 3 fold | fold less avid than for sulfopeptide 2-18 [10]: > 10 fold | fold less avid than for sulfopeptide 2-18 [11]: > 10 fold | IC50 [6]: 1 nM

gp120JR-FL Q422A/CD4-IgG2 complex
fold decrease in binding vs wild-type gp120JR-FL [3]: 5 fold and 10 fold

gp120JR-FL F315A/CD4-IgG2 complex
fold decrease in binding vs wild-type gp120JR-FL [4]: 5 fold and 10 fold
